Reference: US20130171152A1 (published 2013)
Where two headings read alike, the source gives them in different places.

B1: 4A5.37 (antibody, V domains shown)
VH: VKLEESGGGFVKPGGSLKISCAASGFTFRNYAMSWVRLSPEMRLEWVATISSAGGYIFYSDSVQGRFTISRDNAKNTLHLQMGSLRSGDTAMYYCARQGFGNYGDYYAMDYWGQGTTVTVSS
VL: DIELTQSPSSLAVSAGEKVTMSCKSSQSLLNSRTRKNQLAWYQQKTGQSPELLIYWASTRQSGVPDRFTGSGSGTDFTLTISSVQAEDLAVYYCQQSYNLLTFGPGTKLEIKR
B2: 4H11.2.5 (antibody, V domains shown)
VH: VKLQESGGGFVKPGGSLKVSCAASGFTFSSYAMSWVRLSPEMRLEWVATISSAGGYIFYSDSVQGRFTISRDNAKNTLHLQMGSLRSGDTAMYYCARQGFGNYGDYYAMDYWGQGTTVTVSS
VL: DIELTQSPSSLAVSAGEKVTMSCKSSQSLLNSRTRKNQLAWYQQKPGQSPELLIYWASTRQSGVPDRFTGSGSGTDFTLTISSVQAEDLAVYYCQQSYNLLTFGPGTKLEVKR

Tests used:
[1] = biological target: Homo sapiens MUC16 (GenBank NP-078966)
[2] = biological target: Homo sapiens MUC16 (GenBank NP-078966); remark: listed apart in the source

Binder | Kd [1] [nM] | Kd [2] [nM]
B1 | 7.3 | –
B2 | – | 6.8
